For one substance, M (mean fluorescence, FL1-Height) results are on record in patent publication US20040058403A1.

The target in this assay is peptide(18mer)-BodipyFL.

On to “NlpA-[Dig scFv] (26-10 anti-digoxin/digoxigenin scFv fused to the NlpA anchor) (from UniProt P04846 24-29)”, for which the M (mean fluorescence, FL1-Height) was 6.78.
